Test results: patent US20240092920A1 (KEYMED BIOSCIENCES, published 2024)

B1: Clone 25D6 (antibody, V domains shown)
VH: QVQLQQSGAELVKPGASVKMSCKASVNTFTGYNMHWVKQTPGQGLEWIGGLHPGNGDTSYNQKFKGKATLTADKSSNTAYMQLSSLTSEDSAVYYCALTTAGRAWFAYWGQGTLVTVSA
VL: DIQMTQSTSSLSASLGDRVTISCRASQDISNYLNWYQQKPDGTVKLLIYYTSRLHSGVPSRFSGSGSGTDYSLTISNLEQEDIATYFCQQGNTLPWTFGGGTKLEIK
notes: Chimeric IgG: mouse variable regions on human heavy and light chain constant regions (section 6)
B2: Clone 1A6 (antibody, V domains shown)
VH: QVQLQQSGTELVKPGASVKMSCKASVNTFTGYNMHWIKQTPGQGLEWIGGLHPGNGDSSYNQKFKGRATLTADKSSNTAYMQLSSLTSEDSAVYYCALTTAGRAWFPYWGQGTLVTVSA
VL: DIQMTQTTSSLSASLGDRVTISCRASQDISNYLNWYQQKPDGTVKLLIYYTSRLHSGVPSRFSGSGSGTDYSLTISNLEQEDIATYFCQQGNTLPPTFGGGTKLEIK
notes: as for B1
B3: Clone 1H9 (antibody, V domains shown)
VH: QVQLQQSGAELVKPGASVKMSCKASVNTFAGYNMHWVKQTPGQGLEWIGGLHPGNGDTSYNQKFKGKATLTADKSSNTAYMQLSSLTSEDSAVYYCALTTAGRAWFAYWGQGTLVTVSA
VL: DIQMIQSTSSLSASLGDRVTISCRASQDISNYLNWYQQKPDGTVKLLIYYTSRLHSGVPSRFSGSGSGTDYSLTISNLEQEDIATYFCQQGNTLPWTFGGGTKLEIK
notes: as for B1
B4: Clone 2H1 (antibody, V domains shown)
VH: QVQLQQSGTELVKPGASVKMSCKASVNTFTGYNMHWIKQTPGQGLEWIGGLHPGNGDSSYNQKFKGRATLTADKSSNTAYMQLSSLTSEDSAVYYCALTTAGRAWFPYWGQGTLVTVSA
VL: DIQMIQSTSSLSASLGDRVTISCRASQDISNYLNWYQQKPDGTVKLLIYYTSRLHSGVPSRFRGSGSGTDYSLTISNLEQEDIATYFCQQGNTLPLTFGAGTKLELK
notes: as for B1
B5: Clone 25G9 (antibody, V domains shown)
VH: EVQLKESGAELVKPGASVKMSCKASVNIFTGYNMHWVKQTPGQGLEWIGGLHPGNGDTSYNQKFKDKATLTADRSSNTAYMQLSSLTSEDSAVYYCALTTAGRAWFAYWGQGTLVTVSA
VL: DIQMTQSTSSLSASLGDRVTISCRASQDISNYLNWYQQKPDGTVKLLIYYTSRLHSGVPSRFSGSGSGTDYSLTISNLEQEDIATYFCQQGNTLPWTFGGGTRLEIK
notes: as for B1
B6: Clone 31B9 (antibody, V domains shown)
VH: EVQLQQSGAELVKPGASVKMSCKASVNIFTGYNMHWVKQTPGQGLEWIGGLHPGNGDTSYNQKFKDKATLTADRSSNTAYMQLSSLTSEDSAVYYCALTTAGRAWFAYWGQGTLVTVSA
VL: DIQMTQSTSSLSASLGDRVTISCRASQDISNYLNWYQQKPDGTVKLLIYYTSRLHSGVPSRFSGSGSGTDYSLTISNLEQEDIATYFCQQGNTLPWTFGGGTKLEIK
notes: as for B1
B7: Clone 34A2 (antibody, V domains shown)
VH: EVQLQQSGAELVKPGASVKMSCKASVNIFTSYNMHWVKQTPGQGLEWIGGLHPGNGDTSYNQNFKGKATLTADKSSSTAYMQVSNLTSEDSAVYYCVLTTAGRAWFAYWGQGTLVTVSA
VL: DIQMTQSTSSLSASLGDRVTISCRASQDISNYLNWYQQKPDGTVKLLIYYTSRLHSGVPSRFSGSGSGTDYSLTISNLEQEDIATYFCQQGNTLPWTFGGGTKLEIK
notes: as for B1
B8: Clone 34H11 (antibody, V domains shown)
VH: QVQLQESGAELVKPGASVKMSCKASVNTFTGYNMHWVKQTPGQGLEWIGGLHPGNGDTSYNQKFKGKATLTADKSSNTAYMQLSSLTSEDSAVYYCALTTAGRAWFAYWGQGTLVTVSA
VL: DIQMTQTTSSLSASLGDRVTISCRASQDISNYLNWYQQKPDGTVKLLIYYTSRLHSGVPSRFSGSGSGTDYSLTISNLEQEDVATYFCQQGNTLPWTFGGGTKLEIK
notes: as for B1
B9: Clone 35A7 (antibody, V domains shown)
VH: QVQLKQSGAELVKPGASVKMSCTASGNIFSGYNMHWIKQTPGQGLEWIGGLHPGNGDTSYNQKFKGKATLTADKSSNTAYMQLSSLTSEDSAVYYCALTTAGRAWFAYWGQGTLVTVSA
VL: DIQMNQSTSSLSASLGDRVTISCRASQDISNYLNWYQQKPDGTIKLLIYYTSRLYSGVPSRFSGSGSGTDYSLTISNLEEEDIATYFCQQGNTIPYTFGGGTKLEIK
notes: Chimeric IgG (section 6)
B10: Clone 35D5 (antibody, V domains shown)
VH: QVQLKQSGAELVKPGASVKMSCKASVNTFTGYNMHWVKQTPGQGLEWIGGLHPGNGDTSYNQKFKGKATLTADKSSNTAYMQLSSLTSEDSAVYYCALTTAGRAWFAYWGQGTLVTVSA
VL: DIQMTQSTSSLSASLGDRVTISCRASQDISNYLNWYQQKPDGTVKLLIYYTSRLHSGVPSRFSGSGSGTDYSLTISNLEQEDIATYFCQQGNTLPWTFGGGTKLEIK
notes: as for B1
B11: Clone 36F4 (antibody, V domains shown)
VH: QVQLQQSGAELVKPGASVKMSCKASVNIFTGYNMHWVKQTPGQGLEWIGGLHPGNGDTSYNQKFKDKATLTADRSSNTAYMQLSSLTSEDSAVYYCALTTAGRAWFAYWGQGTLVTVSA
VL: DIKMTQSTSSLSASLGDRVTISCRASQDISNYLNWYQQKPDGTVKLLIYYTSRLHSGVPSRFSGSGSGTDYSLTISNLEQEDIATYFCQQGNTLPPWTFGGGTKLEIK
notes: as for B1
B12: Clone 24G10 (antibody, V domains shown)
VH: EVKLVESGGGLVKPGGSLKLSCAASGFTFSRYAMSWVRQTPEKRLEWVATISSGGSYTNYSDSVKGRFTISRDNVKNTLYLQMSSLKSEDSAMYYCARATARATEFAYWGQGTLVTVSA
VL: DIQMTQSTSSLSASLGDRVTISCRASQDISNYLNWYQQKPDGTVKLLIYYTSRLYSGVPSRFSGSGSGTDYSLTISNLEQEDIATYFCQQGNTLPPTFGGGTKLEI
notes: as for B1
B13: Clone 1D8 (antibody, V domains shown)
VH: QVQLQQSGAELVKPGASVKMSCTATGNIFTGYNMHWIKQTPGQGLEWIGGLHPGNGDTSYNQKFKGRATLTADKSSSSAYMQLSSLTSEDSAVYYCALTTAGRAWFAYWGQGTLVTVSA
VL: DIQMTQTTSSLSASLGDRVTISCRASQDISNYLNWYQQKPDGTVKLLIYYTSRLHSGVPSRFSGSGSGTDYSLTISNLEQEDIATYFCQQGNTLHTFGGGTKLEIK
notes: as for B1

target: T1, recombinant protein of human IL-4Rα extracellular region (human, UniProt P24394 26-232); assay: BLI (Fortebio), biotin-labeled hIL-4Rα on SA probe, antibody 50-3.125 ug/ml
T1 construct: range 26-232; Made in HEK293-6E cells, purified on nickel chelate; Used biotin-labeled on SA probes in the Fortebio assays and unlabeled as ELISA coat; also called hIL-4Rα; IL-4Rα recombinant protein
T1 sequence: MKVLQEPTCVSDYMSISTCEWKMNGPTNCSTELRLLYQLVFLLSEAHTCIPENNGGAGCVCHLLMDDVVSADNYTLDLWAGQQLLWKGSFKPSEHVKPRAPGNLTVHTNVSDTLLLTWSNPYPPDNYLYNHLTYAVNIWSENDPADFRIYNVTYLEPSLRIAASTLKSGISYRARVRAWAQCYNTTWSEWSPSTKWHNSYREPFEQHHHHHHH
Experimental: PBS is added to any column of the 96-well plate, 100 ul/well, and the 96-well plate is placed in the probe holder cassette. When taking the probe, be careful to completely hang it on the holder to prevent the probe from touching the holder. The immobilized biotin-labeled hIL-4Rα is diluted to 5 ug/ml with PBS; a new 96-well plate is taken, and the diluted immobilized material is added column by column, 100 ul/well. […] A new 96-well plate is taken, and PBS is added to columns 1 and 2, 100 ul/well (the same buffer for both baseline and dissociation); the diluted immobilized material is added to column 3; the analyte diluted according to the series is added to column 4; 10 mM HCl (pH 1.9) is added to column 11; and PBS is added to column 12. The SA probe binds very strongly to the immobilized biotin material. When regenerated, the immobilized material is still bound to the probe, so it can be reused after immobilizing only once. Then the experimental method is set up in the Fortebio software, and then the experimental program is run for detection.

| Binder | Kd | koff | kon |
| --- | --- | --- | --- |
| B1 | 5.9 nM | 0.000157 s⁻¹ | 26500 M⁻¹ s⁻¹ |
| B2 | 11.3 nM | 0.000602 s⁻¹ | 53000 M⁻¹ s⁻¹ |
| B3 | 8.9 nM | 0.000262 s⁻¹ | 29300 M⁻¹ s⁻¹ |
| B4 | 5.27 nM | 0.000377 s⁻¹ | 71600 M⁻¹ s⁻¹ |
| B5 | < 0.001 nM | < 1e-07 s⁻¹ | 37900 M⁻¹ s⁻¹ |
| B6 | 1.9 nM | 6.28e-05 s⁻¹ | 33000 M⁻¹ s⁻¹ |
| B7 | < 0.001 nM | < 1e-07 s⁻¹ | 29000 M⁻¹ s⁻¹ |
| B8 | 6.6 nM | 0.000176 s⁻¹ | 26900 M⁻¹ s⁻¹ |
| B9 | < 0.001 nM | < 1e-07 s⁻¹ | 24700 M⁻¹ s⁻¹ |
| B10 | 1.3 nM | 5.05e-05 s⁻¹ | 38700 M⁻¹ s⁻¹ |
| B11 | 1.8 nM | 9.37e-05 s⁻¹ | 50900 M⁻¹ s⁻¹ |
| B12 | 0.94 nM | 2.37e-05 s⁻¹ | 25300 M⁻¹ s⁻¹ |
| B13 | 8.06 nM | 0.000566 s⁻¹ | 70100 M⁻¹ s⁻¹ |
